Assay results published in paper PMC12363196, “High level of carbapenem resistance and transmission ability of blaIMP-26 in multidrug-resistant Enterobacter xiangfangensis isolates from China” (mSystems, 2025).

Columns and labels:
Experiment in all cases: purified protein
Conditions in all cases: 50 mM HEPES pH 7.5, 250 mM NaCl, 100 µM ZnCl2, 37 °C, BSA 20 µg/mL in dilution buffer
[1] = test system: CO/N=C(\C(=O)N[C@@H]1C(=O)N2C(C(=O)[O-])=C(C[N+]3(C)CCCC3)CS[C@H]12)c1csc(N)n1
[2] = test system: C[C@@H](O)[C@H]1C(=O)N2C(C(=O)O)=C(S[C@@H]3CN[C@H](C(=O)N(C)C)C3)[C@H](C)[C@H]12
[3] = test system: CC(C)(O/N=C(\C(=O)N[C@@H]1C(=O)N2C(C(=O)[O-])=C(C[n+]3ccccc3)CS[C@H]12)c1csc(N)n1)C(=O)O
[4] = test system: C[C@@H](O)[C@H]1C(=O)N2C(C(=O)O)=C(SCCN=CN)C[C@H]12
[5] = test system: CO/N=C(\C(=O)N[C@@H]1C(=O)N2C(C(=O)O)=C(COC(C)=O)CS[C@H]12)c1csc(N)n1

Substance: IMP-26 (Pseudomonas aeruginosa)
- Km [1]: 497.1 µM
- kcat [1]: 37.58 s⁻¹
- kcat/Km [1]: 76000 M⁻¹ s⁻¹
- Km [2]: 218.8 µM
- kcat [2]: 75.08 s⁻¹
- kcat/Km [2]: 343000 M⁻¹ s⁻¹
- Km [3]: 677.2 µM
- kcat [3]: 38.86 s⁻¹
- kcat/Km [3]: 57000 M⁻¹ s⁻¹
- Km [4]: 932.6 µM
- kcat [4]: 159.51 s⁻¹
- kcat/Km [4]: 171000 M⁻¹ s⁻¹
- Km [5]: 192.1 µM
- kcat [5]: 31.92 s⁻¹
- kcat/Km [5]: 166000 M⁻¹ s⁻¹
